Results: paper PMC3100323

Target: T1, rCmeR C69S/C166S C69S;C166S (Campylobacter jejuni NCTC 11168?) (UniProt Q0PBE2)
T1 sequence: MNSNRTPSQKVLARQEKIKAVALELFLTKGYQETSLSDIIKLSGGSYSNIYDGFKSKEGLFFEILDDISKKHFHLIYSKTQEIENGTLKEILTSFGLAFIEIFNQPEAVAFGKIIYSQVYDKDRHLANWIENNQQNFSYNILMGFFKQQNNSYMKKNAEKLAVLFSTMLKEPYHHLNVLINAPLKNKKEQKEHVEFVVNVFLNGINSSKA
Experiment: EMSA
Settings: 20 mM HEPES pH 7.6, 1 mM EDTA, 10 mM ([…], room temperature 30 min

AGGCTTTGTATTAGCTCCTATGCTTATTTAAATCAAACCCTAGGTTTTTCTCTCCTAGGGTTAAAATTTTTTCATTAGTTTTTAAGTATATACTACGCTATAATATTCATTTTTAATTTTCTTTAAGAAAGGAATTTAATGAAGATAAAAGTTGGGTTGATTTTTTCAGGTATTGCTTG (double strand) [cj0089 promoter (lipoprotein operon), 179 bp]
binding: binds more weakly
